Residue numbers refer to the chain shown, from its start.
T1: human FcγRIIb constitutively expressed on MDCK cells (human, UniProt P31994 43-310)
T1 sequence (looked up): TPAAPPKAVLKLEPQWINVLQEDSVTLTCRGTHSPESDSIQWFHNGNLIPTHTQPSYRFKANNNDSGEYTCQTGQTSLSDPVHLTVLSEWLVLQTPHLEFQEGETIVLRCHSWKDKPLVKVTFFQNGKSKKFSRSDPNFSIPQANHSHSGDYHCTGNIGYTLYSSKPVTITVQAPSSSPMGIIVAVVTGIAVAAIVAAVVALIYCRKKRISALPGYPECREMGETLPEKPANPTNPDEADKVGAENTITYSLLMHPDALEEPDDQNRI

T2: soluble mouse FcγRII, His-tagged (mouse, UniProt P08101 30-210, limits assumed)
T2 construct: Captured on the chip by an anti-His antibody
T2 sequence (looked up): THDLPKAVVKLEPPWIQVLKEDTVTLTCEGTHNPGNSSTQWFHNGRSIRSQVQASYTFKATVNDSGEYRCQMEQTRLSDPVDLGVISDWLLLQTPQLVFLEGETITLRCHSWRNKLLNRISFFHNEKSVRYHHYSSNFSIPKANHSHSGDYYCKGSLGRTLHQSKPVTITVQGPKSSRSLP

B1: M103205H795-P1496m/M103202L889-SK1 (antibody, human IgG1, kappa)
heavy: not shown
light: DIVMTQSPATLSLSPGERATLSCTSSQSVYHANWLSWFQQKPGQPPKLLIYWASTLAYGVPSRFSGSGSGTDFTLTISSLQPEDAATYYCAGGYGGGRYAFGQGTKVEIKRTVAAPSVFIFPPSDEQLKSGTASVVCLLNNFYPREAKVQWKVDNALQSGNSQESVTEQDSKDSTYSLSSTLTLSKADYEKHKVYACEVTHQGLSSPVTKSFNRGEC
B2: M103205H795-P1527m/M103202L889-SK1 (antibody, human IgG1, kappa)
heavy: not shown
light: B1 light
B3: M103205H795-P1523m/M103202L889-SK1 (antibody, human IgG1, kappa)
heavy: not shown
light: B1 light
B4: M103205H795-P1531m/M103202L889-SK1 (antibody, human IgG1, kappa)
heavy: not shown
light: B1 light
B5: M103205H795-P1533m/M103202L889-SK1 (antibody, human IgG1, kappa)
heavy: not shown
light: B1 light
B6: M103205H795-P1541m/M103202L889-SK1 (antibody, human IgG1, kappa)
heavy: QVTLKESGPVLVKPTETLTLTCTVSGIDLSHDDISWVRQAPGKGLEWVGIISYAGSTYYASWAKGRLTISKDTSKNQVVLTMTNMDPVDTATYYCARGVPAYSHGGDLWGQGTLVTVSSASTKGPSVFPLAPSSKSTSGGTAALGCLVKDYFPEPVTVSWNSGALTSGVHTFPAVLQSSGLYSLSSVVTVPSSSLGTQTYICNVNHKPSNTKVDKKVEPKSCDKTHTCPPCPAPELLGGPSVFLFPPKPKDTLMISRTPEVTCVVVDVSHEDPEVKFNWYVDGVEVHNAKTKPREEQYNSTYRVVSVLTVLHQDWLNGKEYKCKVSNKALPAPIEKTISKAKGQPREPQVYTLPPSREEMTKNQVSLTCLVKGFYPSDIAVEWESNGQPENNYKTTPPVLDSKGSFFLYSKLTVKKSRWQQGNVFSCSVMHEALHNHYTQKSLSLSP
light: B1 light
B7: M103205H795-P1536m/M103202L889-SK1 (antibody, human IgG1, kappa)
heavy: not shown
light: B1 light
B8: M103205H795-P1543m/M103202L889-SK1 (antibody, human IgG1, kappa)
heavy: not shown
light: B1 light
B9: M103205H795-P1532m/M103202L889-SK1 (antibody, human IgG1, kappa)
heavy: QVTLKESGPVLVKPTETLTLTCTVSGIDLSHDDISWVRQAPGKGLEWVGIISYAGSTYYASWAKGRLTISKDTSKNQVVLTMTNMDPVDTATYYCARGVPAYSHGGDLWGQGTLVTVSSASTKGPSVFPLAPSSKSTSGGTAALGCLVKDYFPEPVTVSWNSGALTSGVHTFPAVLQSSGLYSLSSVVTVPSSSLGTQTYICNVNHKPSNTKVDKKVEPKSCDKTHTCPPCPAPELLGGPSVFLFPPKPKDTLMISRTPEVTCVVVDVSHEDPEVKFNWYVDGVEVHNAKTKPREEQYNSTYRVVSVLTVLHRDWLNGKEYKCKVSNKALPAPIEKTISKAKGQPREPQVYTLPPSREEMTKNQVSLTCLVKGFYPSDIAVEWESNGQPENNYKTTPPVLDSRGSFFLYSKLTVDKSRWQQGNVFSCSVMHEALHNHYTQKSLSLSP
light: B1 light
B10: M103205H795-P1539m/M103202L889-SK1 (antibody, human IgG1, kappa)
heavy: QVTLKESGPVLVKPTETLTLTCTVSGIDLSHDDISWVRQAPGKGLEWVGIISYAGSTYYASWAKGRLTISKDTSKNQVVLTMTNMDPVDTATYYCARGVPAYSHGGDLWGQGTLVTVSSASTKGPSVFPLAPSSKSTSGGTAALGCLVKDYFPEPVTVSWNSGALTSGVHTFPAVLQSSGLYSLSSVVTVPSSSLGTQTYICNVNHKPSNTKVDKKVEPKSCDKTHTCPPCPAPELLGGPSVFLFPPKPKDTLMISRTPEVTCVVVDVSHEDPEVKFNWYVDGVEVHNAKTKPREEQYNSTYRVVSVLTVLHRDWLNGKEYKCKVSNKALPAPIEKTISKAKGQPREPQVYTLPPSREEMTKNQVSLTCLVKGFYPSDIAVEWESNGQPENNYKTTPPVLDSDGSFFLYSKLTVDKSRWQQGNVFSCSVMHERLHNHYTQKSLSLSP
light: B1 light
B11: M103205H795-P1544m/M103202L889-SK1 (antibody, human IgG1, kappa)
heavy: QVTLKESGPVLVKPTETLTLTCTVSGIDLSHDDISWVRQAPGKGLEWVGIISYAGSTYYASWAKGRLTISKDTSKNQVVLTMTNMDPVDTATYYCARGVPAYSHGGDLWGQGTLVTVSSASTKGPSVFPLAPSSKSTSGGTAALGCLVKDYFPEPVTVSWNSGALTSGVHTFPAVLQSSGLYSLSSVVTVPSSSLGTQTYICNVNHKPSNTKVDKKVEPKSCDKTHTCPPCPAPELLGGPSVFLFPPKPKDTLMISRTPEVTCVVVDVSHEDPEVKFNWYVDGVEVHNAKTKPREEQYNSTYRVVSVLTVLHRDWLNGKEYKCKVSNKALPAPIEKTISKAKGQPREPQVYTLPPSREEMTKNQVSLTCLVKGFYPSDIAVEWESNGQPENNYKTTPPVLDSRGSFFLYSKLTVKKSRWQQGNVFSCSVMHEALHNHYTQKSLSLSP
light: B1 light
B12: M103205H795-P1525m/M103202L889-SK1 (antibody, human IgG1, kappa)
heavy: not shown
light: B1 light
B13: M103205H795-P1534m/M103202L889-SK1 (antibody, human IgG1, kappa)
heavy: not shown
light: B1 light
B14: M103205H795-P1540m/M103202L889-SK1 (antibody, human IgG1, kappa)
heavy: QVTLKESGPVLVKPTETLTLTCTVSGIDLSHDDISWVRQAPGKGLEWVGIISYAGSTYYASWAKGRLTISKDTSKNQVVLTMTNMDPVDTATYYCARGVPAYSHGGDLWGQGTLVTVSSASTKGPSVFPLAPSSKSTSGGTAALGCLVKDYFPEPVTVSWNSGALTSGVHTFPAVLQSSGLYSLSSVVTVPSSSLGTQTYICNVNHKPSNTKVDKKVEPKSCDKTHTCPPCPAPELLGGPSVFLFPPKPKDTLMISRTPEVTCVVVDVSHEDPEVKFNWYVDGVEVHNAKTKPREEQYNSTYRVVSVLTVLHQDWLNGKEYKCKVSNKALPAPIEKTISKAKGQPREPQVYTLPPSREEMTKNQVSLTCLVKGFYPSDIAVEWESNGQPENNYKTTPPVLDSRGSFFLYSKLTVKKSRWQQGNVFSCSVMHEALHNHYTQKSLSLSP
light: B1 light
B15: M103205H795-P1497m/M103202L889-SK1 (antibody, human IgG1, kappa)
heavy: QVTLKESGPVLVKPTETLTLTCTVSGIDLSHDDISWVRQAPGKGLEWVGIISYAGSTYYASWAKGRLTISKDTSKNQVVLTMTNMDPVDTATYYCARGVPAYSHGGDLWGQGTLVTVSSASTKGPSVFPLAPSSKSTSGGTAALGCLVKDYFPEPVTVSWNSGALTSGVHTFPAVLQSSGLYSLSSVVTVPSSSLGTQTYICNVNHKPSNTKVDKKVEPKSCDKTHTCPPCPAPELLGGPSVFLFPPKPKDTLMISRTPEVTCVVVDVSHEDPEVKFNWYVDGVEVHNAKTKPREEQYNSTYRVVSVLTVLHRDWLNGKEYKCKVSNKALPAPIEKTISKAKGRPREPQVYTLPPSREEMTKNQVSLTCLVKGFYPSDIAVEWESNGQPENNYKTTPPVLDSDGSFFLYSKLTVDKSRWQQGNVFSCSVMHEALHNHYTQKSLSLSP
light: B1 light
B16: M103205H795-P1499m/M103202L889-SK1 (antibody, human IgG1, kappa)
heavy: not shown
light: B1 light
notes: also called MS1032LO06-P1499m
B17: M103205H795-P1529m/M103202L889-SK1 (antibody, human IgG1, kappa)
heavy: not shown
light: B1 light
B18: M103205H795-P1542m/M103202L889-SK1 (antibody, human IgG1, kappa)
heavy: not shown
light: B1 light
B19: M103205H795-P1545m/M103202L889-SK1 (antibody, human IgG1, kappa)
heavy: B11 heavy with R403K
light: B1 light
B20: M103205H795-P1530m/M103202L889-SK1 (antibody, human IgG1, kappa)
heavy: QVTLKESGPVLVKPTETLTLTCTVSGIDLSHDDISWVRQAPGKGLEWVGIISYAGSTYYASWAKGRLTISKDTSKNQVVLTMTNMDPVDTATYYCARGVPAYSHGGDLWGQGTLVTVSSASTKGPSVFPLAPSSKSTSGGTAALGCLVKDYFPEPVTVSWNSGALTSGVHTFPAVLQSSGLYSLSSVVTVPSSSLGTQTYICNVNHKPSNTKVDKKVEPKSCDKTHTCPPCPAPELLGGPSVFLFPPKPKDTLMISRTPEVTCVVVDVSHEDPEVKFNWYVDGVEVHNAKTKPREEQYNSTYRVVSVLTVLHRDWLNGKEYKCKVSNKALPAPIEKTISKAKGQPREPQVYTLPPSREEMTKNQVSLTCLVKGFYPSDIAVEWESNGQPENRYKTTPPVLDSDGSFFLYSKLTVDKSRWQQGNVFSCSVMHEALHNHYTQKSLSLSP
light: B1 light
B21: M103205H795-P1498m/M103202L889-SK1 (antibody, human IgG1, kappa)
heavy: not shown
light: B1 light
B22: M103205H795-P1537m/M103202L889-SK1 (antibody, human IgG1, kappa)
heavy: not shown
light: B1 light
B23: M103205H795-P1547m/M103202L889-SK1 (antibody, human IgG1, kappa)
heavy: B11 heavy with R403D, G404K
light: B1 light
B24: M103205H795-P1538m/M103202L889-SK1 (antibody, human IgG1, kappa)
heavy: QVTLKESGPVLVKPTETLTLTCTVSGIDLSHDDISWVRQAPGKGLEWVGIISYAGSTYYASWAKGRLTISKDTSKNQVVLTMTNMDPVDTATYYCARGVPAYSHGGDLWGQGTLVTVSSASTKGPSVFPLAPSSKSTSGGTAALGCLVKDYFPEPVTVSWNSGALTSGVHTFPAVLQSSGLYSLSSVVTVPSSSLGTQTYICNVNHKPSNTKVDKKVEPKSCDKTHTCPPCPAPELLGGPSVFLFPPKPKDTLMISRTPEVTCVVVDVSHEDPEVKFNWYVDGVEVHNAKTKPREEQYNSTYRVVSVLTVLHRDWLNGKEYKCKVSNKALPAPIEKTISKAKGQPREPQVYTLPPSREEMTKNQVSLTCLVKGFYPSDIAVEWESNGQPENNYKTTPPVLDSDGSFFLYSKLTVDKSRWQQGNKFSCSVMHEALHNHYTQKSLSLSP
light: B1 light
B25: M103205H795-P1524m/M103202L889-SK1 (antibody, human IgG1, kappa)
heavy: not shown
light: B1 light
B26: M103205H795-P1526m/M103202L889-SK1 (antibody, human IgG1, kappa)
heavy: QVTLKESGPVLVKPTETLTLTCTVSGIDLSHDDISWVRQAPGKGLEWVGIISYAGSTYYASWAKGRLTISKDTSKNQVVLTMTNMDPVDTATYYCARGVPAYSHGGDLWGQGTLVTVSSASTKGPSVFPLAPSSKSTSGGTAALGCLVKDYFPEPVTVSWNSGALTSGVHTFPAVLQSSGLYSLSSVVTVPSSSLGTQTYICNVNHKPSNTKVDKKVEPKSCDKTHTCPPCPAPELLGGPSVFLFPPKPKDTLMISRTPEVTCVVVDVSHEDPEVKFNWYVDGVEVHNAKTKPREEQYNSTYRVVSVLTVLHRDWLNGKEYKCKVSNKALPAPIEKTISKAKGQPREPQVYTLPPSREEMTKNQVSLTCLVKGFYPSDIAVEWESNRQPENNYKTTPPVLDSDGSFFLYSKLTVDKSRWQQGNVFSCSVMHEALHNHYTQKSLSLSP
light: B1 light
B27: M103205H795-P1548m/M103202L889-SK1 (antibody, human IgG1, kappa)
heavy: B11 heavy with G387R, K415D
light: B1 light
B28: M103205H795-P1501m/M103202L889-SK1 (antibody, human IgG1, kappa)
heavy: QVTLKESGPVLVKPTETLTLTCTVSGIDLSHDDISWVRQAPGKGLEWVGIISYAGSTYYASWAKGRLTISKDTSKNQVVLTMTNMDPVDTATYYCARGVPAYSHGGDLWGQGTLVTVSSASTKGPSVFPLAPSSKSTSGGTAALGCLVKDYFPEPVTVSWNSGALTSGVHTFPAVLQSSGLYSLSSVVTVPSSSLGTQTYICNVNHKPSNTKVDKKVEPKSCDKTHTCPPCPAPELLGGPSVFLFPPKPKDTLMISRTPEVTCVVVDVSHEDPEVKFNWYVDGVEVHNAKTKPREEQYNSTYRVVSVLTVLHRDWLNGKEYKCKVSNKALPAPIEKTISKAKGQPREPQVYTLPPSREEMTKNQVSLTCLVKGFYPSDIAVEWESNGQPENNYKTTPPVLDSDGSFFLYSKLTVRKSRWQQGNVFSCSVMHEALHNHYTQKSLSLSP
light: B1 light
B29: M103205H795-P1535m/M103202L889-SK1 (antibody, human IgG1, kappa)
heavy: not shown
light: B1 light
B30: M103205H795-P1546m/M103202L889-SK1 (antibody, human IgG1, kappa)
heavy: B11 heavy with R403D, G404R
light: B1 light
B31: M103205H795-P1522m/M103202L889-SK1 (antibody, human IgG1, kappa)
heavy: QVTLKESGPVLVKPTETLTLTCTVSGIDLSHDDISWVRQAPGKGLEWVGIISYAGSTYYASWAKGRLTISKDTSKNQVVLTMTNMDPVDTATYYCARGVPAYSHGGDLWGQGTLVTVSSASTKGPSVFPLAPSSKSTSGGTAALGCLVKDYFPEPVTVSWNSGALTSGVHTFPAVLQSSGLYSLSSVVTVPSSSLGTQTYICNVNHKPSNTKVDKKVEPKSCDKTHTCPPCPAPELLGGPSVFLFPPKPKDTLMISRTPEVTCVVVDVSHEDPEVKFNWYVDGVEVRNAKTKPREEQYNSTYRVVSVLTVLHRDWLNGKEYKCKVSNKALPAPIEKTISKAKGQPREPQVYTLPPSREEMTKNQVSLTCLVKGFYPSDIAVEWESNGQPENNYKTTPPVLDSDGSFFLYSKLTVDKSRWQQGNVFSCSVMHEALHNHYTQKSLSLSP
light: B1 light
B32: M103205H795-P1500m/M103202L889-SK1 (antibody, human IgG1, kappa)
heavy: not shown
light: B1 light
B33: M103205H795-P1528m/M103202L889-SK1 (antibody, human IgG1, kappa)
heavy: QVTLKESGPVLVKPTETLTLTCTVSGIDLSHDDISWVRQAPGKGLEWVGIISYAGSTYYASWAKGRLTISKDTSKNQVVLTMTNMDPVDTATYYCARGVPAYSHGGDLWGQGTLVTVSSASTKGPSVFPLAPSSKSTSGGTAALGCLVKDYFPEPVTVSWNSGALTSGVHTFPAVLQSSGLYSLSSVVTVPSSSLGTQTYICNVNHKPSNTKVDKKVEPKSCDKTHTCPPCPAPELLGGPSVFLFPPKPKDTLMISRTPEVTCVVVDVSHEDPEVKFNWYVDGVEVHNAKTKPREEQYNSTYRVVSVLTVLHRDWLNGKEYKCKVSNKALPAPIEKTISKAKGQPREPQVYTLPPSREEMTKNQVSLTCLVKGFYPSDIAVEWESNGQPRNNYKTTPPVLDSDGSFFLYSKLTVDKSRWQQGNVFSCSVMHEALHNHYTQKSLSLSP
light: B1 light

Legend:
[1] = target: T1, human FcγRIIb constitutively expressed …; assay: cell-based or functional assay
[2] = target: T2, soluble mouse FcγRII, His-tagged; assay: SPR, mouse FcgRII-His captured, antigen-antibody complex injected, pH7.4, 25C
Method: Regarding the produced Fc region variant-containing antibodies, binding assays between soluble mouse FcγRII and antigen-antibody complexes were performed using BIACORE® T200 (GE Healthcare). Soluble mouse FcγRII was produced in the form of a His-tagged molecule by a method known to those skilled in the art. An appropriate amount of an anti-His antibody was fixed onto Sensor chip CM5 (GE Healthcare) by the amine coupling method using a His capture kit (GE Healthcare) to capture mouse FcγRII. Next, an antibody-antigen complex and a running buffer (as a reference solution) were injected, and interaction was allowed to take place with the mouse FcγRII captured onto the sensor chip. 20 mM N-(2-Acetamido)-2-aminoethanesulfonic acid, 150 mM NaCl, 1.2 mM CaCl₂, and 0.05% (w/v) TWEEN, 20 at pH7.4 was used as the running buffer, and the respective buffer was also used to dilute the soluble mouse FcγRII. To regenerate the sensor chip, 10 mM glycine-HCl at pH1.5 was used. All measurements were carried out at 25° C. […] To calculate the parameters, the BIACORE® T100 Evaluation Software (GE Healthcare) was used.

Binder	celluar uptake [1]	biacore IC binding [2]
B1	1.69 relative to SG1 (=1.00)	1.28 relative to SG1 (=1.00)
B2	0.92 relative to SG1 (=1.00)	0.98 relative to SG1 (=1.00)
B3	1.91 relative to SG1 (=1.00)	1.19 relative to SG1 (=1.00)
B4	2.35 relative to SG1 (=1.00)	1.01 relative to SG1 (=1.00)
B5	3.52 relative to SG1 (=1.00)	1.18 relative to SG1 (=1.00)
B6	7.17 relative to SG1 (=1.00)	1.57 relative to SG1 (=1.00)
B7	2.05 relative to SG1 (=1.00)	1.16 relative to SG1 (=1.00)
B8	3.7 relative to SG1 (=1.00)	1.19 relative to SG1 (=1.00)
B9	4.16 relative to SG1 (=1.00)	1.23 relative to SG1 (=1.00)
B10	3.2 relative to SG1 (=1.00)	0.9 relative to SG1 (=1.00)
B11	7.66 relative to SG1 (=1.00)	2.04 relative to SG1 (=1.00)
B12	3.55 relative to SG1 (=1.00)	1.31 relative to SG1 (=1.00)
B13	3.12 relative to SG1 (=1.00)	1.12 relative to SG1 (=1.00)
B14	7.64 relative to SG1 (=1.00)	1.73 relative to SG1 (=1.00)
B15	1.38 relative to SG1 (=1.00)	1.49 relative to SG1 (=1.00)
B16	3.61 relative to SG1 (=1.00)	1.98 relative to SG1 (=1.00)
B17	2.86 relative to SG1 (=1.00)	1.08 relative to SG1 (=1.00)

Binder	celluar uptake [1]	biacore IC binding [2]
B18	3.32 relative to SG1 (=1.00)	1.21 relative to SG1 (=1.00)
B19	7.73 relative to SG1 (=1.00)	1.8 relative to SG1 (=1.00)
B20	3.12 relative to SG1 (=1.00)	1.09 relative to SG1 (=1.00)
B21	1.56 relative to SG1 (=1.00)	1.38 relative to SG1 (=1.00)
B22	2.77 relative to SG1 (=1.00)	1.32 relative to SG1 (=1.00)
B23	4.85 relative to SG1 (=1.00)	1.33 relative to SG1 (=1.00)
B24	1.84 relative to SG1 (=1.00)	1.11 relative to SG1 (=1.00)
B25	3.66 relative to SG1 (=1.00)	1.4 relative to SG1 (=1.00)
B26	1.2 relative to SG1 (=1.00)	1.04 relative to SG1 (=1.00)
B27	2.3 relative to SG1 (=1.00)	1.37 relative to SG1 (=1.00)
B28	2.4 relative to SG1 (=1.00)	1.82 relative to SG1 (=1.00)
B29	2.49 relative to SG1 (=1.00)	1.11 relative to SG1 (=1.00)
B30	5.1 relative to SG1 (=1.00)	1.41 relative to SG1 (=1.00)
B31	2.13 relative to SG1 (=1.00)	1.24 relative to SG1 (=1.00)
B32	1.82 relative to SG1 (=1.00)	1.32 relative to SG1 (=1.00)
B33	3.02 relative to SG1 (=1.00)	1.12 relative to SG1 (=1.00)

— patent US20200317768A1 (published 2020)
